Where two headings read alike, the source gives them in different places.
Assays:
[1] = target: RSV-F protein (as used in the D25 competition binding assay) (respiratory syncytial virus, strain not stated); test: competition ELISA on infected cells against biotin-labeled D25 at 100 ng/ml constant, A450 [cont'd) D]
[2] = target: RSV-F protein (as used in the D25 competition binding assay) (respiratory syncytial virus, strain not stated)
[3] = target: RSV A2 F protein on untreated cells (pre-fusion form) (Human respiratory syncytial virus, strain A2) (UniProt P03420)
[4] = target: RSV-B F protein from strain 18537 (wild type) (Human respiratory syncytial virus, strain 18537 (subtype B)) (UniProt P13843)
[5] = target: RSV A2 F protein on untreated cells (pre-fusion form) (Human respiratory syncytial virus, strain A2) (UniProt P03420); remark: listed apart in the source
[6] = target: HR1 construct containing amino acids 153-221 of RSV A2 F protein (Human respiratory syncytial virus, strain A2)
[7] = target: SK-epitope: amino acids 195-228 of RSV A2 F protein (C212S) in the inhibitor loop of Ecballium elate (Human respiratory syncytial virus, strain A2 (insert); Ecballium elaterium (scaffold))
[8] = target: RSV A2 F protein on untreated cells (pre-fusion form) (Human respiratory syncytial virus, strain A2) (UniProt P03420); test: cell-based or functional assay
[9] = target: RSV-B F protein from strain 18537 (wild type) (Human respiratory syncytial virus, strain 18537 (subtype B)) (UniProt P13843); remark: listed apart in the source
[10] = target: MARM B2 F protein (RSV B 18537 F, L204V) (Human respiratory syncytial virus, D25-resistant mutant of strain 18537) (UniProt P13843)
[11] = target: MARM B1 F protein (RSV B 18537 F, N201D) (Human respiratory syncytial virus, D25-resistant mutant of strain 18537) (UniProt P13843)
[12] = target: RSV-B F protein from strain 18537 (wild type) (Human respiratory syncytial virus, strain 18537 (subtype B)) (UniProt P13843); test: cell-based or functional assay
[13] = target: MARM B2 F protein (RSV B 18537 F, L204V) (Human respiratory syncytial virus, D25-resistant mutant of strain 18537) (UniProt P13843); test: cell-based or functional assay
[14] = target: MARM B1 F protein (RSV B 18537 F, N201D) (Human respiratory syncytial virus, D25-resistant mutant of strain 18537) (UniProt P13843); test: cell-based or functional assay
[15] = target: MARM A1 F protein (RSV A2 F, N208Y) (Human respiratory syncytial virus, D25-resistant mutant of strain A2) (UniProt P03420); test: cell-based or functional assay
[16] = target: MARM A1 F protein (RSV A2 F, N208Y) (Human respiratory syncytial virus, D25-resistant mutant of strain A2) (UniProt P03420)
[17] = target: MARM A1 F protein (RSV A2 F, N208Y) (Human respiratory syncytial virus, D25-resistant mutant of strain A2) (UniProt P03420); remark: listed apart in the source
[18] = target: MARM B1 F protein (RSV B 18537 F, N201D) (Human respiratory syncytial virus, D25-resistant mutant of strain 18537) (UniProt P13843); remark: listed apart in the source
[19] = target: MARM B2 F protein (RSV B 18537 F, L204V) (Human respiratory syncytial virus, D25-resistant mutant of strain 18537) (UniProt P13843); remark: listed apart in the source

## anti-RSV-F antibody AM22
[1]
  IC50 (read off the curve): 2 µg/mL

## monoclonal antibody D25
[2]
  IC50 (read off the curve): 0.6 µg/mL
[3]
  IC50 (read off the curve): 10 µg/mL
[4]
  IC50 (read off the curve): 0.07 µg/mL
[5]
  IC50 (read off the curve): 0.1 µg/mL
[6]
  Kd: 1.9 nM
[7]
  Kd: 0.0585 nM
[8]
  RSV microneutralization assay (antibody concentration able to neutralize): 1 µg/mL

## motavizumab (antibody)
[9]
  IC50 (read off the curve): 0.1 µg/mL
[10]
  IC50 (read off the curve): 0.04 µg/mL
[11]
  IC50 (read off the curve): 0.06 µg/mL
[12]
  RSV microneutralization assay (antibody concentration able to neutralize): < 100 ng/mL
[13]
  RSV microneutralization assay (antibody concentration able to neutralize): < 100 ng/mL
[14]
  RSV microneutralization assay (antibody concentration able to neutralize): < 100 ng/mL
[15]
  RSV microneutralization assay (antibody concentration able to neutralize): < 100 ng/mL
[16]
  IC50 (read off the curve): 0.1 µg/mL

## palivizumab (antibody)
[17]
  IC50 (read off the curve): 40 µg/mL
[18]
  IC50 (read off the curve): 200 µg/mL
[13]
  RSV microneutralization assay (antibody concentration able to neutralize): 100000 ng/mL
[14]
  RSV microneutralization assay (antibody concentration able to neutralize): 100000 ng/mL
[15]
  RSV microneutralization assay (antibody concentration able to neutralize): 100000 ng/mL
[19]
  IC50 (read off the curve): 300 µg/mL
